Drawing on the Immune Epitope Database (IEDB), this text covers Kd for 74 sequences.

Where only a bound is given, the exact number is not on record here.

One assay deals with HLA-A*02:01. The assay is described as follows: IEDB peptide-MHC binding, purified MHC/direct/fluorescence; filed as Kd, often an IC50 or EC50 that approximates it; ≥ and ≤ were set here for values at or beyond the usual limits of such assays. To be noted: source organism: Camelpox virus M-96.
The term Kd denotes the concentration at which binding is half-saturated. Regarding RMIAISAKV, the dissociation constant (Kd) is 3.4 nM.

Staying with this assay, now noted: source organism: Homo sapiens.
YLDFGGPEG had a Kd of 1500 nM.

Staying with this assay, now noted: source organism: Influenza A virus (A/Jiangsu/38/2004(H3N2)).
ILDGENCTL had a Kd of 37.8 nM.

The target in the next assay is HLA-B*58:01. The description is as above. To be noted: source organism: Mycobacterium tuberculosis.
GGTPAVEEW: the Kd is 202 nM.

The same assay, now with this note: source organism: Mycobacterium tuberculosis variant bovis.
TTTYKAFDW registered a Kd of 71.3 nM.

A further assay addresses HLA-A*01:01. Described as above. To be noted: source organism: Homo sapiens.
As to YLDFGGPEG, the Kd came to 2460 nM.

The target in the next assay is HLA-A*03:01. The assay is described as above. Conditions: source organism: Vibrio cholerae.
The sequence TLNRCALLR came in with an equilibrium dissociation constant (Kd) of 2230 nM.

The same assay, now with this note: source organism: Vibrio parahaemolyticus RIMD 2210633.
For the sequence LLQAGASVK, the dissociation constant Kd was 79 nM.

The target of the next assay is HLA-B*15:01. Described as above. To be noted: source organism: Influenza A virus (A/eka/Thailand/EkA1NRC/2004(H5N1)).
On to GVKGFSFKY, for which the Kd was ≥ 20000 nM.

The same assay, now with this note: source organism: Mycobacterium tuberculosis C.
LLWYRRGTF: the equilibrium dissociation constant (Kd) worked out at 360 nM.

The target in the next assay is HLA-A*30:02. The assay is described as follows: IEDB peptide-MHC binding, purified MHC/competitive/radioactivity; filed as Kd, often an IC50 or EC50 that approximates it; ≥ and ≤ were set here for values at or beyond the usual limits of such assays. Conditions: source organism: Dengue virus 1 Brazil/97-11/1997.
Regarding GVPLLALGCY, the dissociation constant (Kd) is 37.6 nM.

The assay is the same for the next values; noted with them: source organism: Dengue virus 2 Jamaica/1409/1983.
Take RVAAEGINY: the equilibrium dissociation constant (Kd) was 48.4 nM.

Staying with this assay, now noted: source organism: Dengue virus 2 Peru/IQT2913/1996.
Turning to KVAAEGINY, the Kd is 110 nM.

Still in this assay, the particulars now being: source organism: Dengue virus 3 Martinique/1243/1999.
KVASEGIKY: the Kd worked out at 1740 nM.
Consider IWYMWLGARY, for which the Kd came out at 3.2 nM.

In a further assay the target is HLA-A*02:03. The assay is described as above. Conditions: source organism: Lymphocytic choriomeningitis virus (strain Armstrong).
With SNSEDLLKAV, the equilibrium dissociation constant (Kd) worked out at 15200 nM.

Staying with this assay, now noted: source organism: Lymphocytic choriomeningitis virus (strain WE).
Take FSTSAYLISI: the Kd was found to be 13.5 nM.

Staying with this assay, now noted: source organism: Mammarenavirus brazilense.
LNISGYNYSL: the Kd was ≥ 49000 nM.
As for ICFWSTLFFT, the Kd was ≥ 35100 nM.

The assay is the same for the next values; noted with them: source organism: Mammarenavirus whitewaterense.
In the case of GLVDVCFWS, the Kd stood at 1070 nM.

The same assay, now with this note: source organism: SARS coronavirus Tor2.
As to LVFLWLLWPV, the Kd came to 1.93 nM.
As to ALLFLMSFT, the Kd was 1990 nM.
For WLLWPVTLA, the Kd came out at 1.2 nM.
Take KLLIVLTCI: the Kd turned out to be 1940 nM.

Still in this assay, the particulars now being: source organism: Vaccinia virus WR.
For TIAGGVCYYL, the dissociation constant (Kd) turned out to be 34.3 nM.
In the case of IAIFNNRNL, the dissociation constant Kd amounted to 10500 nM.
For TILATLNTL, the equilibrium dissociation constant (Kd) is 33.8 nM.
Turning to GTKGKLYIA, the dissociation constant Kd was 55.9 nM.
On the same count and under the same terms, then ILATLNTLI, with 0.231 nM; and GLSASDVDM, with 3540 nM.
With YAVLSEYET, the Kd was ≥ 35100 nM.
Take IISLFYTFAI: the Kd stood at 43.7 nM.
With KIVQLPKRGV, the Kd was found to be 51.4 nM.
Same read-out and setting: to DLLFNEKLKV belongs 317 nM.
Consider WLKDSAIMVA, for which the dissociation constant Kd is 1320 nM.
The same measure, in the same setting: then RTIDAINKCV, with 334 nM; and GLIVILFIM, with 1390 nM.
On the same count and under the same terms, to VMDKNHAIFT belongs 11500 nM; to VLQQNNSFII, 1030 nM; to CQCTVQEFI, 4790 nM.
Same read-out and setting: to PTNDIPSLFI belongs ≥ 61800 nM; to CVDHPFIYV, 1410 nM.
AIDRQVSVKL: the Kd is 13100 nM.
The same measure, in the same setting: to LVAEHRFENM belongs 462 nM.
IMETIDPVYI: the Kd worked out at 239 nM.
The same measure, in the same setting: to SIAMLKSKNI belongs 55 nM; to YVSSSYKDI, 1200 nM; to KVIKLVKSL, 42.5 nM.
On the same count and under the same terms, then ALYSPPLISI, with 150 nM.
Same read-out and setting: then EMKYALINL, with 63.5 nM; and FIVYGRSNA, with 370 nM; and KVEKYLPEV, with 171 nM.
Take GAAITLVVI: the Kd is 3280 nM.
Same read-out and setting: then KVYLSTFNM, with 786 nM; and SLIYYQNEVT, with 606 nM.
With GARVIWMDA, the Kd came to 9140 nM.
Same read-out and setting: then VVIVENDNV, with ≥ 38000 nM; and FLPQIGGEAI, with 13.5 nM; and DLLNVTYNI, with 194 nM.
Still for that read-out and setting: then RQLTSNVDV, with 9760 nM; and MIIGEPIIVA, with 111 nM.
DVERLQMAGV: the Kd was found to be 104 nM.
Still for that read-out and setting: then VVISVIFYFI, with 755 nM.
The same measure, in the same setting: then TIAVSVYGAI, with 582 nM; and IVSLCPTKKL, with 29.5 nM.
For KLVETGFVI, the Kd amounted to 1070 nM.
With MQLKIDKLT, the Kd is ≥ 60100 nM.
For the sequence DVSVSVGTGI, the Kd turned out to be 5830 nM.
Still for that read-out and setting: then RILSEKRKDT, with 4160 nM; and ITLILSNKLL, with 4690 nM; and ATQFNFNGHT, with 11500 nM.

For the next assay, the target named is HLA-A*26:01. The description is as above. Conditions: source organism: Dengue virus 2 Jamaica/1409/1983.
In the case of TTIAVSMAN, the dissociation constant (Kd) came out at 5160 nM.

The assay is the same for the next values; noted with them: source organism: Dengue virus 3 Martinique/1243/1999.
For TLILAGVSLL, the Kd came to 6690 nM.

Still in this assay, the particulars now being: source organism: Dengue virus 4 Philippines/H241/1956.
Regarding EKLRIKGMSY, the Kd is 4650 nM.
Take ENPYRTWAY: the Kd amounted to 4380 nM.

The target of another assay is HLA-A*02:06. The assay is described as above. To be noted: source organism: Lymphocytic choriomeningitis virus (strain Armstrong).
With SNSEDLLKAV, the equilibrium dissociation constant (Kd) was ≥ 10000 nM.

Still in this assay, the particulars now being: source organism: Lymphocytic choriomeningitis virus (strain WE).
With FSTSAYLISI, the Kd is 3.48 nM.

Still in this assay, the particulars now being: source organism: Mammarenavirus brazilense.
As to LNISGYNYSL, the dissociation constant (Kd) was 1090 nM.
With ICFWSTLFFT, the Kd was ≥ 34900 nM.

The same assay, now with this note: source organism: Mammarenavirus whitewaterense.
Turning to GLVDVCFWS, the Kd was 533 nM.

The same assay, now with this note: source organism: SARS coronavirus Tor2.
Turning to LVFLWLLWPV, the dissociation constant Kd was found to be 0.564 nM.
Same read-out and setting: then ALLFLMSFT, with 128 nM.
WLLWPVTLA: the dissociation constant Kd was 17.4 nM.
Regarding KLLIVLTCI, the Kd is 449 nM.

Still in this assay, the particulars now being: source organism: Vaccinia virus WR.
As for TIAGGVCYYL, the equilibrium dissociation constant (Kd) was determined as 4.01 nM.
As for IAIFNNRNL, the Kd came to 13400 nM.
Take TILATLNTL: the Kd amounted to 25.6 nM.
On the same count and under the same terms, to GTKGKLYIA belongs 2530 nM; to ILATLNTLI, 40.5 nM; to GLSASDVDM, 13800 nM.
Take YAVLSEYET: the Kd came out at 1330 nM.
Still for that read-out and setting: to IISLFYTFAI belongs 146 nM; to KIVQLPKRGV, 2250 nM.
